Here are results for one molecule from patent publication US20230365658A1.

The test deals with SARS-CoV-2 spike (S) glycoprotein, Omicron BA.4.6 (SARS-CoV-2), P0DTC2. Briefly: cell-based or functional assay.

B1: mAb_v2130Vanderbilt_184_20220114_00112 (antibody, V domains shown)
VH: EVQLVESGGGLVKPGGSLRLSCAASGFTFRDVWMSWVRQAPGKGLEWVGRIKSKIDGGTTDYAAPVKGRFTISRDDSKNTLYLQMNSLKTEDTAVYYCTTAGSYYYDTVGPELPEGKFDYWGQGTLVTVSS
VL: not shown
Take B1: the pseudoviral neutralization IC50 was 1260 ng/mL.
